Test results published in the supplement of paper PMC5998384.

Columns and labels:
[1] = system: HeLa Kyoto; test: solubility in G1/S (NP-40 vs SDS abundance) (log2 ratio); higher = more soluble; conditions: cell cycle stage: G1/S
[2] = system: HeLa Kyoto; test: melting temperature (median over replicates), in situ; higher = more thermally stable
[3] = system: HeLa Kyoto; test: solubility change mitosis vs G1/S (difference of NP-40 vs SDS log2 ratios) (log2 ratio difference); higher = more soluble in mitosis
[4] = system: HeLa Kyoto; test: thermal stability score vs G1/S (z-score of summed log2 fold changes over temperatures); higher = more thermally stable than in G1/S
[5] = cell cycle stage: early G1 (4.5 h after nocodazole release)
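Wherever melting temperature (median over replicates), in situ is given: HeLa Kyoto cells synchronized by double thymidine or nocodazole block, proteins quantified by TMT10plex mass spectrometry, three independent biological replicates.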
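Wherever solubility change mitosis vs G1/S (difference of NP-40 vs SDS log2 ratios) is given: synchronized HeLa Kyoto cells (double thymidine block for G1/S, nocodazole release for mitosis), protein amounts in NP-40 versus SDS lysates quantified by mass spectrometry, three biological replicates.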
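Wherever solubility in G1/S (NP-40 vs SDS abundance) is given: HeLa Kyoto cells arrested at G1/S by double thymidine block, proteins quantified by TMT10plex mass spectrometry in mild NP-40 versus SDS extracts, three biological replicates.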
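Wherever thermal stability score vs G1/S (z-score of summed log2 fold changes over temperatures) is given: synchronized HeLa Kyoto cells, proteins quantified by TMT10plex mass spectrometry, three biological replicates, mitosis taken 0.5 h after nocodazole release, G1/S directly after double thymidine block.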

| Sequence | solubility in G1/S (log2) [1] | melting temperature ([2]; cell cycle stage: G1/S) | melting temperature ([2]; cell cycle stage: mitosis) | solubility change mitosis (log2) [3] | thermal stability score [4, 5] | thermal stability score ([4]; cell cycle stage: mitosis) |
| --- | --- | --- | --- | --- | --- | --- |
| MASACGAPGPGGALGSQAPSWYHRDLSRAAAEELLARAGRDGSFLVRDSESVAGAFALCVLYQKHVHTYRILPDGEDFLAVQTSQGVPVRRFQTLGELIGLYAQPNQGLVCALLLPVEGEREPDPPDDRDASDGEDEKPPLPPRSGSTSISAPTGPSSPLPAPETPTAPAAESAPNGLSTVSHDYLKGSYGLDLEAVRGGASHLPHLTRTLATSCRRLHSEVDKVLSGLEILSKVFDQQSSPMVTRLLQQQNLPQTGEQELESLVLKLSVLKDFLSGIQKKALKALQDMSSTAPPAPQPSTRKAKTIPVQAFEVKLDVTLGDLTKIGKSQKFTLSVDVEGGRLVLLRRQRDSQEDWTTFTHDRIRQLIKSQRVQNKLGVVFEKEKDRTQRKDFIFVSARKREAFCQLLQLMKNKHSKQDEPDMISVFIGTWNMGSVPPPKNVTSWFTSKGLGKTLDEVTVTIPHDIYVFGTQENSVGDREWLDLLRGGLKELTDLDYRPIAMQSLWNIKVAVLVKPEHENRISHVSTSSVKTGIANTLGNKGAVGVSFMFNGTSFGFVNCHLTSGNEKTARRNQNYLDILRLLSLGDRQLNAFDISLRFTHLFWFGDLNYRLDMDIQEILNYISRKEFEPLLRVDQLNLEREKHKVFLRFSEEEISFPPTYRYERGSRDTYAWHKQKPTGVRTNVPSWCDRILWKSYPETHIICNSYGCTDDIVTSDHSPVFGTFEVGVTSQFISKKGLSKTSDQAYIEFESIEAIVKTASRTKFFIEFYSTCLEEYKKSFENDAQSSDNINFLKVQWSSRQLPTLKPILADIEYLQDQHLLLTVKSMDGYESYGECVVALKSMIGSTAQQFLTFLSHRGEETGNIRGSMKVRVPTERLGTRERLYEWISIDKDEAGAKSKAPSVSRGSQEPRSGSRKPAFTEASCPLSRLFEEPEKPPPTGRPPAPPRAAPREEPLTPRLKPEGAPEPEGVAAPPPKNSFNNPAYYVLEGVPHQLLPPEPPSPARAPVPSATKNKVAITVPAPQLGHHRHPRVGEGSSSDEESGGTLPPPDFPPPPLPDSAIFLPPSLDPLPGPVVRGRGGAEARGPPPPKAHPRPPLPPGPSPASTFLGEVASGDDRSCSVLQMAKTLSEVDYAPAGPARSALLPGPLELQPPRGLPSDYGRPLSFPPPRIRESIQEDLAEEAPCLQGGRASGLGEAGMSAWLRAIGLERYEEGLVHNGWDDLEFLSDITEEDLEEAGVQDPAHKRLLLDTLQLSK [INPPL1] | 0.0138 | 48.6 °C | 48.6 °C | -0.119 | 0.612 | 2.56 |
| MASESDTEEFYDAPEDVHLGGGYPVGSPGKVGLSTFKETENTAYKVGNESPVQELKQDVSKKIIESIIEESQKVLQLEDDSLDSKGKELSDQATASPIVARTDLSNIPGLLAIDQVLPEESQKAESQNTFEETELELKKCFPSDETCEKPVDETTKLTQTSSTEQLNVLETETEVLNKEAVEVKGGGDVLEPVSSDSLSTKDFAAVEEVAPAKPPRHLTPEPDIVASTKKPVPARPPPPTNFPPPRPPPPSRPAPPPRKRKSELEFETLKTPDIDVPKENITSDSLLTASMASESTVKDSQPSLDLASATSGDKIVTAQENGKAPDGQTVAGEVMGPQRPRSNSGRELTDEEILASVMIKNLDTGEEIPLSLAEEKLPTGINPLTLHIMRRTKEYVSNDAAQSDDEEKLQSQPTDTDGGRLKQKTTQLKKFLGKSVKRAKHLAEEYGERAINKVKSVRDEVFHTDQDDPSSSDDEGMPYTRPVKFKAAHGFKGPYDFDQIKVVQDLSGEHMGAVWTMKFSHCGRLLASAGQDNVVRIWALKNAFDYFNNMRMKYNTEGRVSPSPSQESLSSSKSDTDTGVCSGTDEDPDDKNAPFRQRPFCKYKGHTADLLDLSWSKNYFLLSSSMDKTVRLWHISRRECLCCFQHIDFVTAIAFHPRDDRYFLSGSLDGKLRLWNIPDKKVALWNEVDGQTKLITAANFCQNGKYAVIGTYDGRCIFYDTEHLKYHTQIHVRSTRGRNKVGRKITGIEPLPGENKILVTSNDSRIRLYDLRDLSLSMKYKGYVNSSSQIKASFSHDFTYLVSGSEDKYVYIWSTYHDLSKFTSVRRDRNDFWEGIKAHNAVVTSAIFAPNPSLMLSLDVQSEKSEGNEKSEDAEVLDATPSGIMKTDNTEVLLSADFTGAIKVFVNKRKNVS [WDR44] | -0.102 | 55.7 °C | 55.1 °C | -0.145 | -1.63 | -2.21 |
| MASFVTEVLAHSGRLEKEDLGTRISRLTRRVEEIKGEVCNMISKKYSEFLPSMQSAQGLITQVDKLSEDIDLLKSRIESEVRRDLHVSTGEFTDLKQQLERDSVVLSLLKQLQEFSTAIEEYNCALTEKKYVTGAQRLEEAQKCLKLLKSRKCFDLKILKSLSMELTIQKQNILYHLGEEWQKLIVWKFPPSKDTSSLESYLQTELHLYTEQSHKEEKTPMPPISSVLLAFSVLGELHSKLKSFGQMLLKYILRPLASCPSLHAVIESQPNIVIIRFESIMTNLEYPSPSEVFTKIRLVLEVLQKQLLDLPLDTDLENEKTSTVPLAEMLGDMIWEDLSECLIKNCLVYSIPTNSSKLQQYEEIIQSTEEFENALKEMRFLKGDTTDLLKYARNINSHFANKKCQDVIVAARNLMTSEIHNTVKIIPDSKINVPELPTPDEDNKLEVQKVSNTQYHEVMNLEPENTLDQHSFSLPTCRISESVKKLMELAYQTLLEATTSSDQCAVQLFYSVRNIFHLFHDVVPTYHKENLQKLPQLAAIHHNNCMYIAHHLLTLGHQFRLRLAPILCDGTATFVDLVPGFRRLGTECFLAQMRAQKGELLERLSSARNFSNMDDEENYSAASKAVRQVLHQLKRLGIVWQDVLPVNIYCKAMGTLLNTAISEVIGKITALEDISTEDGDRLYSLCKTVMDEGPQVFAPLSEESKNKKYQEEVPVYVPKWMPFKELMMMLQASLQEIGDRWADGKGPLAAAFSSSEVKALIRALFQNTERRAAALAKIK [ZW10] | -0.218 | 49.6 °C | 49.5 °C | -0.19 | 0.485 | 1.13 |
| MASGEHSPGSGAARRPLHSAQAVDVASASNFRAFELLHLHLDLRAEFGPPGPGAGSRGLSGTAVLDLRCLEPEGAAELRLDSHPCLEVTAAALRRERPGSEEPPAEPVSFYTQPFSHYGQALCVSFPQPCRAAERLQVLLTYRVGEGPGVCWLAPEQTAGKKKPFVYTQGQAVLNRAFFPCFDTPAVKYKYSALIEVPDGFTAVMSASTWEKRGPNKFFFQMCQPIPSYLIALAIGDLVSAEVGPRSRVWAEPCLIDAAKEEYNGVIEEFLATGEKLFGPYVWGRYDLLFMPPSFPFGGMENPCLTFVTPCLLAGDRSLADVIIHEISHSWFGNLVTNANWGEFWLNEGFTMYAQRRISTILFGAAYTCLEAATGRALLRQHMDITGEENPLNKLRVKIEPGVDPDDTYNETPYEKGFCFVSYLAHLVGDQDQFDSFLKAYVHEFKFRSILADDFLDFYLEYFPELKKKRVDIIPGFEFDRWLNTPGWPPYLPDLSPGDSLMKPAEELAQLWAAEELDMKAIEAVAISPWKTYQLVYFLDKILQKSPLPPGNVKKLGDTYPSISNARNAELRLRWGQIVLKNDHQEDFWKVKEFLHNQGKQKYTLPLYHAMMGGSEVAQTLAKETFASTASQLHSNVVNYVQQIVAPKGS [RNPEP] | 0.182 | 50.1 °C | 50.3 °C | -0.179 | 1.06 | 1.25 |
| MASGVTVNDEVIKVFNDMKVRKSSTQEEIKKRKKAVLFCLSDDKRQIIVEEAKQILVGDIGDTVEDPYTSFVKLLPLNDCRYALYDATYETKESKKEDLVFIFWAPESAPLKSKMIYASSKDAIKKKFTGIKHEWQVNGLDDIKDRSTLGEKLGGNVVVSLEGKPL [CFL2] | 0.129 | 55.1 °C | 54.2 °C | -0.058 | -0.937 | -3.81 |
